In the nanobody polyreactivity screen of Harvey et al. (2022):

Assay: yeast display, Sf9 membrane polyspecificity reagent, FACS + sequencing; frameworks hold sequencing errors
In short: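 A nanobody's polyreactivity label depends on the gate it was sorted from. Yeast display cells were stained with 10% biotinylated, detergent-solubilized Sf9 membrane reagent for 1 hour at 4 °C, enriched on streptavidin microbeads and sorted by FACS. The low and high (top ~1%) gates were set on anti-HA fluorescence for expression and streptavidin fluorescence for reagent binding.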
With “QVQLVESGGRLVQAGGSIRLRCAASGNTFVYNDMGWYRQAPGKERELVADIRYSGSTYYADSVKGRFTISRDNATNTVYLEMNSLKPEDTAVYYCAKAYYVLSWMGYWGQGTQVTVSS” the “polyreactivity (PSR sort gate)” value was “low polyreactivity”.
For “QVQLVESGGRLVQAGGSIRLSCAASGRIFGAYAMGWYRQAPGKERELVAAITQSGGSTFYADSVKGRFTISRDNAKNTVYLQMNSLKPEVTAVYYWGQGTQVTVSS”, the “polyreactivity (PSR sort gate)” value was “low polyreactivity”.
In the case of “QVQLVESGGRLVQAGGSLLLSSAASGRTFGIYAMGWSRQSPGKERELCAAITWSGDSTYYADSVKGRFTISRDNAKNTVYIQMNSLKPEDTAVYYCAADYVGLTSVRYDYWGQGTQVTVSS”, the “polyreactivity (PSR sort gate)” value is reported as “low polyreactivity”.
In the case of “QVQLVESGGRLVQAGGSLRFSCAASGGIFESYAMGGYRQAPGQERELVASISSGGSTYYADSVKGRFTISRDNAKNTVYLQMNSLKPEDTAVYYCNTDNGSHGMDYWGQGTQVTVSS”, the “polyreactivity (PSR sort gate)” value is reported as “low polyreactivity”.
In the case of “QVQLVESGGRLVQAGGSLRLICAASGFTFGAYAMGWYRQAPGKERELVATIPYSGDSTYYADSVKGRFTISRDNAKNTVYLQMNSLKPEDTSVYYCAAYSTEGCGSPDWFESFDYWGQGTLVTVSS”, the “polyreactivity (PSR sort gate)” value is reported as “low polyreactivity”.
For “QVQLVESGGRLVQAGGSLRLICAASGFTFWYYAIGWYRQAPGKESEFVASISWNGGRTYYADSVKGRFTISRDNAKNTVYLQMNSLKPEDTAVYYCATRVIYSFTDFKGDYWGQGTQVTVSS”, the “polyreactivity (PSR sort gate)” value was “high polyreactivity”.
In the case of “QVQLVESGGRLVQAGGSLRLSCAASGFIFFTYAMGWYRQAPGKERELVAVITRGGSTYYADSVKGRFTISRDNAKNTVYLQMNSLKPEDTAVYYCAARRYRYFDGTVPLDYWGQGTQVSVSS”, the “polyreactivity (PSR sort gate)” value is reported as “high polyreactivity”.
For “QVQLVESGGRLVQAGGSLRLSCAASGFIFRKYAMGWYRQAHGKVRELVAGIDWSGCRTYYADSVKGRFTISRDNAKNTVYLQMNSLKPEDTAVYYCNSVFRARPDYDYWGVGTQVTVSS”, the “polyreactivity (PSR sort gate)” value was “high polyreactivity”.
With “QVQLVESGGRLVQAGGSLRLSCAASGFTFARYTMGWYRQAPGKERELVAAISSRGSSTYYADSVKWRFTISRDNAKNTVYLQMNSLKPEDTAVYYCGAPPRYGYDYWGQGTQVTVSS” the “polyreactivity (PSR sort gate)” value was “high polyreactivity”.
In the case of “QVQLVESGGRLVQAGGSLRLSCAASGFTFNYNAMGWYRQAPGKERELVAAISRSGGSTYYADSVMGRFTISRDNAKNTFYLQMNSLKPEDTAVYYFAAVRDIGKYGYWGQGTQVTVSS”, the “polyreactivity (PSR sort gate)” value is reported as “high polyreactivity”.
In the case of “QVQLVESGGRLVQAGGSLRLSCAASGFTYSPYAMGWYRQAPWKESELVAAITSSGGSTYYADSVKGRFTISRDNANNSVYLQMKSLKPEDTAVYYSAADYGYKYYWRYGYWGQGTQVTVSS”, the “polyreactivity (PSR sort gate)” value is reported as “high polyreactivity”.
In the case of “QVQLVESGGRLVQAGGSLRLSCAASGITFYYYAMGWYRQAPGKERELVAAISVSGGSTYYADSVKGRFTISRDNAKNTVYLQMNSLKPEDTAVYYCAAADLLSYTYPEYDYWGQGTQVTVSS”, the “polyreactivity (PSR sort gate)” value is reported as “low polyreactivity”.
For “QVQLVESGGRLVQAGGSLRLSCAASGLIFAPYAMGWYRQAPGKEWELVAAISSSGTSTYYADSVKGRFTISRDNAKNTVYLQMNSLKPEDTAVYYCAAVYWTFWGTIATRYDYWGQGTQVTVSS”, the “polyreactivity (PSR sort gate)” value was “high polyreactivity”.
For “QVQLVESGGRLVQAGGSLRLSCAASGLIIDYYTMGWYRQAPGKERELVAAINKSGGSTYADSVKGRFTISRDNAKNTVYLQMNCLKPEDSAVYYCAAEVDYSYWPEYSRKYYYWGEGTQVTVSS”, the “polyreactivity (PSR sort gate)” value was “low polyreactivity”.
For “QVQLVESGGRLVQAGGSLRLSCAASGLTLFRYDQGWYRQAPGKERELVAAIDYGGGTYYADSVKGRFTISRDNAKNTVYLQMNSLKPEDTAVYYCAVEPEYKYYEGDYWGQGTQVTVSS”, the “polyreactivity (PSR sort gate)” value was “low polyreactivity”.
With “QVQLVESGGRLVQAGGSLRLSCAASGRIFGAYAMGWYRQAPGKERELVAAINSGGSTFYADSVKGRFTISRDNAKNTVYLQMNRLKPEDTAVYYCAKRSYDYRRYSWGQGTQVTVSS” the “polyreactivity (PSR sort gate)” value was “high polyreactivity”.
In the case of “QVQLVESGGRLVQAGGSLRLSCAASGRIFNYYDMGWYSQAPGKERELVAAINYSGGSTYYADSVKGRFTISRDNAKNTVSLQMNSLKAEDTAVYYCAADGYYYYCYGTTDQDDYWGLGTQVTVSS”, the “polyreactivity (PSR sort gate)” value is reported as “low polyreactivity”.
